# Laboratory results reported in ChEMBL document CHEMBL1138864, “Synthesis of novel caspase inhibitors for characterization of the active caspase proteome in vitro and in vivo” (J Med Chem, 2006).
# Key:
# Conditions in all cases: Homo sapiens
# [1] = substrate: Cc1cccc(C)c1C(=O)OCC(=O)[C@H](CC(=O)O)NC(=O)[C@H](CCCCNC(=O)CCCCCNC(=O)CCCCC1SC[C@@H]2NC(=O)N[C@H]12)NC(=O)[C@H](CCC(=O)O)NC(=O)OCc1ccccc1
# Description: Inhibition of human caspase 8
# [2] = substrate: Cc1cccc(C)c1C(=O)OCC(=O)[C@H](CC(=O)O)NC(=O)[C@H](CCCCNC(=O)CCCCCNC(=O)CCCCC1SC[C@@H]2NC(=O)N[C@H]12)NC(=O)[C@H](CCC(=O)O)NC(=O)OCc1ccccc1; remark: listed apart in the source
# Description: Inhibition of human caspase 5
# [3] = substrate: Cc1cccc(C)c1C(=O)OCC(=O)[C@H](CC(=O)O)NC(=O)[C@H](CCCCNC(=O)CCCCCNC(=O)CCCCC1SC[C@@H]2NC(=O)N[C@H]12)NC(=O)[C@H](CCC(=O)O)NC(=O)OCc1ccccc1; remark: listed apart in the source
# Description: Inhibition of human caspase 2
# [4] = substrate: Cc1cccc(C)c1C(=O)OCC(=O)[C@H](CC(=O)O)NC(=O)[C@H](CCCCNC(=O)CCCCCNC(=O)CCCCC1SC[C@@H]2NC(=O)N[C@H]12)NC(=O)[C@H](CCC(=O)O)NC(=O)OCc1ccccc1; remark: listed apart in the source
# Description: Inhibition of human caspase 3
# [5] = substrate: Cc1cccc(C)c1C(=O)OCC(=O)[C@H](CC(=O)O)NC(=O)[C@H](CCCCNC(=O)CCCCCNC(=O)CCCCC1SC[C@@H]2NC(=O)N[C@H]12)NC(=O)[C@H](CCC(=O)O)NC(=O)OCc1ccccc1; remark: listed apart in the source
# Description: Inhibition of human caspase 6
# [6] = substrate: Cc1cccc(C)c1C(=O)OCC(=O)[C@H](CC(=O)O)NC(=O)[C@H](CCCCNC(=O)CCCCCNC(=O)CCCCC1SC[C@@H]2NC(=O)N[C@H]12)NC(=O)[C@H](CCC(=O)O)NC(=O)OCc1ccccc1; remark: listed apart in the source
# Description: Inhibition of human caspase 1
# [7] = substrate: Cc1cccc(C)c1C(=O)OCC(=O)[C@H](CC(=O)O)NC(=O)[C@H](CCCCNC(=O)CCCCCNC(=O)CCCCC1SC[C@@H]2NC(=O)N[C@H]12)NC(=O)[C@H](CCC(=O)O)NC(=O)OCc1ccccc1; remark: listed apart in the source
# Description: Inhibition of human caspase 4
# [8] = substrate: Cc1cccc(C)c1C(=O)OCC(=O)[C@H](CC(=O)O)NC(=O)[C@H](CCCCNC(=O)CCCCCNC(=O)CCCCC1SC[C@@H]2NC(=O)N[C@H]12)NC(=O)[C@H](CCC(=O)O)NC(=O)OCc1ccccc1; remark: listed apart in the source
# Description: Inhibition of human caspase 7
protein,measurement,setting,value
"Caspase-8 (Homo sapiens), Q14790 (protein) MDFSRNLYDIGEQLDSEDLASLKFLSLDYIPQRKQEPIKDALMLFQRLQEKRMLEESNLSFLKELLFRINRLDLLITYLNTRKEEMERELQTPGRAQISAYRVMLYQISEEVSRSELRSFKFLLQEEISKCKLDDDMNLLDIFIEMEKRVILGEGKLDILKRVCAQINKSLLKIINDYEEFSKERSSSLEGSPDEFSNGEELCGVMTISDSPREQDSESQTLDKVYQMKSKPRGYCLIINNHNFAKAREKVPKLHSIRDRNGTHLDAGALTTTFEELHFEIKPHDDCTVEQIYEILKIYQLMDHSNMDCFICCILSHGDKGIIYGTDGQEAPIYELTSQFTGLKCPSLAGKPKVFFIQACQGDNYQKGIPVETDSEEQPYLEMDLSSPQTRYIPDEADFLLGMATVNNCVSYRNPAEGTWYIQSLCQSLRERCPRGDDILTILTEVNYEVSNKDDKKNMGKQMPQPTFTLRKKLVFPSD",Km,[1],140 µM
"Caspase-5 (Homo sapiens), P51878 (protein) MAEDSGKKKRRKNFEAMFKGILQSGLDNFVINHMLKNNVAGQTSIQTLVPNTDQKSTSVKKDNHKKKTVKMLEYLGKDVLHGVFNYLAKHDVLTLKEEEKKKYYDTKIEDKALILVDSLRKNRVAHQMFTQTLLNMDQKITSVKPLLQIEAGPPESAESTNILKLCPREEFLRLCKKNHDEIYPIKKREDRRRLALIICNTKFDHLPARNGAHYDIVGMKRLLQGLGYTVVDEKNLTARDMESVLRAFAARPEHKSSDSTFLVLMSHGILEGICGTAHKKKKPDVLLYDTIFQIFNNRNCLSLKDKPKVIIVQACRGEKHGELWVRDSPASLALISSQSSENLEADSVCKIHEEKDFIAFCSSTPHNVSWRDRTRGSIFITELITCFQKYSCCCHLMEIFRKVQKSFEVPQAKAQMPTIERATLTRDFYLFPGN",Km,[2],2500 µM
"Caspase-2 (Homo sapiens), P42575 (protein) MAAPSAGSWSTFQHKELMAADRGRRILGVCGMHPHHQETLKKNRVVLAKQLLLSELLEHLLEKDIITLEMRELIQAKVGSFSQNVELLNLLPKRGPQAFDAFCEALRETKQGHLEDMLLTTLSGLQHVLPPLSCDYDLSLPFPVCESCPLYKKLRLSTDTVEHSLDNKDGPVCLQVKPCTPEFYQTHFQLAYRLQSRPRGLALVLSNVHFTGEKELEFRSGGDVDHSTLVTLFKLLGYDVHVLCDQTAQEMQEKLQNFAQLPAHRVTDSCIVALLSHGVEGAIYGVDGKLLQLQEVFQLFDNANCPSLQNKPKMFFIQACRGDETDRGVDQQDGKNHAGSPGCEESDAGKEKLPKMRLPTRSDMICGYACLKGTAAMRNTKRGSWYIEALAQVFSERACDMHVADMLVKVNALIKDREGYAPGTEFHRCKEMSEYCSTLCRHLYLFPGHPPT",Km,[3],560 µM
"Caspase-3 (Homo sapiens), P42574 (protein) MENTENSVDSKSIKNLEPKIIHGSESMDSGISLDNSYKMDYPEMGLCIIINNKNFHKSTGMTSRSGTDVDAANLRETFRNLKYEVRNKNDLTREEIVELMRDVSKEDHSKRSSFVCVLLSHGEEGIIFGTNGPVDLKKITNFFRGDRCRSLTGKPKLFIIQACRGTELDCGIETDSGVDDDMACHKIPVEADFLYAYSTAPGYYSWRNSKDGSWFIQSLCAMLKQYADKLEFMHILTRVNRKVATEFESFSFDATFHAKKQIPCIVSMLTKELYFYH",Km,[4],74 µM
"Caspase-6 (Homo sapiens), P55212 (protein) MSSASGLRRGHPAGGEENMTETDAFYKREMFDPAEKYKMDHRRRGIALIFNHERFFWHLTLPERRGTCADRDNLTRRFSDLGFEVKCFNDLKAEELLLKIHEVSTVSHADADCFVCVFLSHGEGNHIYAYDAKIEIQTLTGLFKGDKCHSLVGKPKIFIIQACRGNQHDVPVIPLDVVDNQTEKLDTNITEVDAASVYTLPAGADFLMCYSVAEGYYSHRETVNGSWYIQDLCEMLGKYGSSLEFTELLTLVNRKVSQRRVDFCKDPSAIGKKQVPCFASMLTKKLHFFPKSN",Km,[5],220 µM
"Caspase-1 (Homo sapiens), P29466 (protein) MADKVLKEKRKLFIRSMGEGTINGLLDELLQTRVLNKEEMEKVKRENATVMDKTRALIDSVIPKGAQACQICITYICEEDSYLAGTLGLSADQTSGNYLNMQDSQGVLSSFPAPQAVQDNPAMPTSSGSEGNVKLCSLEEAQRIWKQKSAEIYPIMDKSSRTRLALIICNEEFDSIPRRTGAEVDITGMTMLLQNLGYSVDVKKNLTASDMTTELEAFAHRPEHKTSDSTFLVFMSHGIREGICGKKHSEQVPDILQLNAIFNMLNTKNCPSLKDKPKVIIIQACRGDSPGVVWFKDSVGVSGNLSLPTTEEFEDDAIKKAHIEKDFIAFCSSTPDNVSWRHPTMGSVFIGRLIEHMQEYACSCDVEEIFRKVRFSFEQPDGRAQMPTTERVTLTRCFYLFPGH",Km,[6],100 µM
"Caspase-4 (Homo sapiens), P49662 (protein) MAEGNHRKKPLKVLESLGKDFLTGVLDNLVEQNVLNWKEEEKKKYYDAKTEDKVRVMADSMQEKQRMAGQMLLQTFFNIDQISPNKKAHPNMEAGPPESGESTDALKLCPHEEFLRLCKERAEEIYPIKERNNRTRLALIICNTEFDHLPPRNGADFDITGMKELLEGLDYSVDVEENLTARDMESALRAFATRPEHKSSDSTFLVLMSHGILEGICGTVHDEKKPDVLLYDTIFQIFNNRNCLSLKDKPKVIIVQACRGANRGELWVRDSPASLEVASSQSSENLEEDAVYKTHVEKDFIAFCSSTPHNVSWRDSTMGSIFITQLITCFQKYSWCCHLEEVFRKVQQSFETPRAKAQMPTIERLSMTRYFYLFPGN",Km,[7],1100 µM
"Caspase-7 (Homo sapiens), P55210 (protein) MADDQGCIEEQGVEDSANEDSVDAKPDRSSFVPSLFSKKKKNVTMRSIKTTRDRVPTYQYNMNFEKLGKCIIINNKNFDKVTGMGVRNGTDKDAEALFKCFRSLGFDVIVYNDCSCAKMQDLLKKASEEDHTNAACFACILLSHGEENVIYGKDGVTPIKDLTAHFRGDRCKTLLEKPKLFFIQACRGTELDDGIQADSGPINDTDANPRYKIPVEADFLFAYSTVPGYYSWRSPGRGSWFVQALCSILEEHGKDLEIMQILTRVNDRVARHFESQSDDPHFHEKKQIPCVVSMLTKELYFSQ",Km,[8],230 µM
